Laboratory results reported in the supplement of paper PMC9112550, “Optimization of the antimicrobial peptide Bac7 by deep mutational scanning” (BMC Biology, 2022).

test system: Escherichia coli TOP10; experiment: shrunken log2 fold change of peptide-encoding DNA abundance (4.5 h post-induction vs induction); higher = less antimicrobial activity (less host growth inhibition); settings: time post-induction: 4.5 h; library: site-saturation at positions 5, 18, 19, 20
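Also: peptides expressed intracellularly from a pBAD plasmid library in pooled LB shake-flask culture, induced with 0.3% L-arabinose, DNA abundance read by NGS, three biological replicates, DESeq2 with apeglm shrinkage.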

Row | Sequence | shrunken log2 fold change
1 | RRIRQRPPRLPRPRPRPIIEPRP | -0.504
2 | RRIRQRPPRLPRPRPRPQVAPRP | -0.156
3 | RRIRYRPPRLPRPRPRPEPLPRP | 0.0319
4 | RRIRCRPPRLPRPRPRPYTQPRP | -1.31
5 | RRIRCRPPRLPRPRPRPDQMPRP | 0.101
6 | RRIRMRPPRLPRPRPRPVLSPRP | 0.0984
7 | RRIRCRPPRLPRPRPRPSLMPRP | -0.287
8 | RRIRQRPPRLPRPRPRPFTLPRP | -0.0549
9 | RRIRLRPPRLPRPRPRPRMYPRP | -0.166
10 | RRIRYRPPRLPRPRPRPHTPPRP | -0.346
11 | RRIRPRPPRLPRPRPRPCWTPRP | -0.397
12 | RRIRMRPPRLPRPRPRPQNVPRP | -0.0183
13 | RRIRYRPPRLPRPRPRPYHKPRP | -0.249
14 | RRIRDRPPRLPRPRPRPLTIPRP | -0.257
15 | RRIRQRPPRLPRPRPRPYQVPRP | -0.0417
16 | RRIRRRPPRLPRPRPRPCLCPRP | -0.00345
17 | RRIRTRPPRLPRPRPRPMCVPRP | 0.103
18 | RRIRDRPPRLPRPRPRPDCIPRP | 0.438
19 | RRIRPRPPRLPRPRPRPMRTPRP | 0.357
20 | RRIRVRPPRLPRPRPRPSIYPRP | -0.482
21 | RRIRKRPPRLPRPRPRPRFPPRP | 0.647
22 | RRIRYRPPRLPRPRPRPFCPPRP | -0.878
23 | RRIRGRPPRLPRPRPRPIWMPRP | 0.245
24 | RRIRWRPPRLPRPRPRPISLPRP | -0.161
25 | RRIRPRPPRLPRPRPRPKGQPRP | 0.205

Row | Sequence | shrunken log2 fold change
26 | RRIRKRPPRLPRPRPRPKVGPRP | 0.00386
27 | RRIRRRPPRLPRPRPRPLFHPRP | 0.0745
28 | RRIRKRPPRLPRPRPRPTGTPRP | 0.563
29 | RRIRARPPRLPRPRPRPKTCPRP | 0.161
30 | RRIRNRPPRLPRPRPRPKKRPRP | 0.201
31 | RRIRSRPPRLPRPRPRPYMFPRP | -0.648
32 | RRIRWRPPRLPRPRPRPYDFPRP | -0.181
33 | RRIRMRPPRLPRPRPRPNPWPRP | 0.123
34 | RRIRFRPPRLPRPRPRPSRVPRP | 0.0914
35 | RRIRCRPPRLPRPRPRPFMCPRP | -0.0735
36 | RRIRQRPPRLPRPRPRPGNLPRP | 0.0588
37 | RRIRTRPPRLPRPRPRPLLTPRP | -0.0897
38 | RRIRPRPPRLPRPRPRPDWHPRP | -0.159
39 | RRIRERPPRLPRPRPRPMGQPRP | -0.0667
40 | RRIRVRPPRLPRPRPRPMEHPRP | 0.0534
41 | RRIRMRPPRLPRPRPRPMDQPRP | -0.0516
42 | RRIRVRPPRLPRPRPRPMASPRP | -0.01
43 | RRIRERPPRLPRPRPRPKYYPRP | -0.183
44 | RRIRPRPPRLPRPRPRPIGSPRP | 0.0547
45 | RRIRDRPPRLPRPRPRPSVYPRP | -0.404
46 | RRIRERPPRLPRPRPRPRPQPRP | 0.61
47 | RRIRKRPPRLPRPRPRPHDNPRP | 0.029
48 | RRIRQRPPRLPRPRPRPKGRPRP | 0.0377
49 | RRIRRRPPRLPRPRPRPLWAPRP | 0.501
50 | RRIRRRPPRLPRPRPRPDKAPRP | -0.131

Row | Sequence | shrunken log2 fold change
51 | RRIRFRPPRLPRPRPRPEFAPRP | -0.175
52 | RRIRLRPPRLPRPRPRPAWCPRP | 0.094
53 | RRIRCRPPRLPRPRPRPANNPRP | -0.409
54 | RRIRCRPPRLPRPRPRPANWPRP | 0.938
55 | RRIRDRPPRLPRPRPRPLPTPRP | 0.358
56 | RRIRHRPPRLPRPRPRPRPHPRP | 0.365
57 | RRIRDRPPRLPRPRPRPAAIPRP | 0.272
58 | RRIRYRPPRLPRPRPRPDRWPRP | -0.118
59 | RRIRPRPPRLPRPRPRPWGAPRP | 0.738
60 | RRIRFRPPRLPRPRPRPEACPRP | -0.0833
61 | RRIRMRPPRLPRPRPRPFCDPRP | 0.179
62 | RRIRLRPPRLPRPRPRPMMTPRP | -0.042
63 | RRIRPRPPRLPRPRPRPSKVPRP | -0.223
64 | RRIRARPPRLPRPRPRPISFPRP | 0.323
65 | RRIRERPPRLPRPRPRPPIYPRP | -0.633
66 | RRIRGRPPRLPRPRPRPPLFPRP | 0.974
67 | RRIRIRPPRLPRPRPRPYCRPRP | 0.182
68 | RRIRVRPPRLPRPRPRPTAVPRP | 0.327
69 | RRIRLRPPRLPRPRPRPVGMPRP | -0.0033
70 | RRIRPRPPRLPRPRPRPIFKPRP | -0.0374
71 | RRIRQRPPRLPRPRPRPTLDPRP | 0.476
72 | RRIRPRPPRLPRPRPRPPSHPRP | 0.0789
73 | RRIRKRPPRLPRPRPRPAMCPRP | 0.059
74 | RRIRVRPPRLPRPRPRPDAYPRP | -0.056
75 | RRIRDRPPRLPRPRPRPLMSPRP | 0.101

Row | Sequence | shrunken log2 fold change
76 | RRIRQRPPRLPRPRPRPMSEPRP | 0.0772
77 | RRIRWRPPRLPRPRPRPPHYPRP | 0.24
78 | RRIRRRPPRLPRPRPRPANFPRP | -0.0416
79 | RRIRRRPPRLPRPRPRPGVFPRP | 0.278
80 | RRIRARPPRLPRPRPRPRDTPRP | 0.673
81 | RRIRMRPPRLPRPRPRPCDPPRP | -0.0166
82 | RRIRARPPRLPRPRPRPDTQPRP | 0.374
83 | RRIRTRPPRLPRPRPRPYHWPRP | -0.675
84 | RRIRARPPRLPRPRPRPHGSPRP | -0.071
85 | RRIRFRPPRLPRPRPRPSSHPRP | -0.682
86 | RRIRARPPRLPRPRPRPACSPRP | 0.591
87 | RRIRYRPPRLPRPRPRPIECPRP | 0.00468
88 | RRIRLRPPRLPRPRPRPWPMPRP | -0.0188
89 | RRIRWRPPRLPRPRPRPFMNPRP | -0.11
90 | RRIRCRPPRLPRPRPRPHPSPRP | -0.00515
91 | RRIRARPPRLPRPRPRPNVKPRP | -0.167
92 | RRIRWRPPRLPRPRPRPAHQPRP | 0.176
93 | RRIRGRPPRLPRPRPRPVTFPRP | 0.172
94 | RRIRNRPPRLPRPRPRPSWEPRP | -0.32
95 | RRIRARPPRLPRPRPRPWISPRP | -0.333
96 | RRIRSRPPRLPRPRPRPPYEPRP | 0.0519
97 | RRIRSRPPRLPRPRPRPWSPPRP | -0.1
98 | RRIRYRPPRLPRPRPRPHVDPRP | -0.588
99 | RRIRWRPPRLPRPRPRPTHVPRP | 0.316
100 | RRIRNRPPRLPRPRPRPRAEPRP | 0.103

Row | Sequence | shrunken log2 fold change
101 | RRIRYRPPRLPRPRPRPRKYPRP | -0.333
102 | RRIRARPPRLPRPRPRPPIMPRP | 0.0549
103 | RRIRVRPPRLPRPRPRPEGWPRP | 0.762
104 | RRIRHRPPRLPRPRPRPVWIPRP | -0.0159
105 | RRIRERPPRLPRPRPRPMPYPRP | -0.0164
106 | RRIRWRPPRLPRPRPRPYVIPRP | -0.0496
107 | RRIRLRPPRLPRPRPRPNMHPRP | -0.565
108 | RRIRTRPPRLPRPRPRPIMTPRP | -0.0418
109 | RRIRTRPPRLPRPRPRPNTVPRP | -0.305
110 | RRIRCRPPRLPRPRPRPTGGPRP | 0.561
111 | RRIRYRPPRLPRPRPRPTVQPRP | 0.028
112 | RRIRARPPRLPRPRPRPSTVPRP | 0.123
113 | RRIRPRPPRLPRPRPRPYDHPRP | -0.0209
114 | RRIRMRPPRLPRPRPRPHMSPRP | -0.123
115 | RRIRWRPPRLPRPRPRPPERPRP | 0.816
116 | RRIRIRPPRLPRPRPRPDPHPRP | -0.314
117 | RRIRTRPPRLPRPRPRPGNTPRP | -0.0393
118 | RRIRWRPPRLPRPRPRPEDGPRP | 0.173
119 | RRIRCRPPRLPRPRPRPWFYPRP | -0.758
120 | RRIRSRPPRLPRPRPRPFQLPRP | -0.0513
121 | RRIRGRPPRLPRPRPRPRGAPRP | 1.66
122 | RRIRNRPPRLPRPRPRPLDVPRP | -0.251
123 | RRIRIRPPRLPRPRPRPHEYPRP | 0.0332
124 | RRIRHRPPRLPRPRPRPSLVPRP | -0.264
125 | RRIRIRPPRLPRPRPRPTFEPRP | 0.168

Row | Sequence | shrunken log2 fold change
126 | RRIRDRPPRLPRPRPRPTNNPRP | 0.0553
127 | RRIRFRPPRLPRPRPRPDCYPRP | -0.329
128 | RRIRERPPRLPRPRPRPVECPRP | -0.152
129 | RRIRWRPPRLPRPRPRPDNGPRP | 0.0563
130 | RRIRVRPPRLPRPRPRPESIPRP | -0.149
131 | RRIRNRPPRLPRPRPRPWFWPRP | 0.422
132 | RRIRMRPPRLPRPRPRPQGQPRP | 0.253
133 | RRIRDRPPRLPRPRPRPRCNPRP | -0.0439
134 | RRIRERPPRLPRPRPRPTRAPRP | 0.571
135 | RRIRARPPRLPRPRPRPAHNPRP | 0.155
136 | RRIRARPPRLPRPRPRPDLQPRP | 0.79
137 | RRIRIRPPRLPRPRPRPYTDPRP | -0.0335
138 | RRIRRRPPRLPRPRPRPCDFPRP | -0.128
139 | RRIRFRPPRLPRPRPRPYFVPRP | -0.59
140 | RRIRCRPPRLPRPRPRPEQKPRP | -0.0751
141 | RRIRMRPPRLPRPRPRPSASPRP | 1.7
142 | RRIRGRPPRLPRPRPRPCNEPRP | 0.0278
143 | RRIRFRPPRLPRPRPRPYDEPRP | -0.526
144 | RRIRPRPPRLPRPRPRPIMMPRP | -0.199
145 | RRIRWRPPRLPRPRPRPWAKPRP | 0.279
146 | RRIRRRPPRLPRPRPRPNWSPRP | -0.0147
147 | RRIRRRPPRLPRPRPRPVEKPRP | -0.00451
148 | RRIRWRPPRLPRPRPRPLHWPRP | 0.296
149 | RRIRPRPPRLPRPRPRPIYGPRP | -0.0498
150 | RRIRFRPPRLPRPRPRPSYMPRP | -1.21
